B1: NLV2 TCR alpha chain (CDR3α only) (parent)
chain: AGPMKTSYDKVI
partner: NLVGMVATV

Variants of: B1
Experiment: T-Switch: Jurkat TCRβ−/− cells expressing a CDR3 saturation-mutagenesis library, stained with two peptide-HLA-A*02:01 tetramers (original and novel peptide) plus anti-CD3, FACS-sorted into four gates, gDNA sequenced
Conditions: with HLA-A*02:01 with peptide … (NLV 2-2, the original bait), tetramers 1 µg/mL, 30 min on ice, DP and SW gates expanded about 10 days between rounds ('two to three rounds of selection' in the Methods), gate SP: higher = more of the variant in the gate that binds the original peptide and not the novel one = retained original binding. Fold enrichment of the CDR3 variant in one FACS gate of a two-tetra, unresolved parent, parent is a CDR3 fragment, scale: fold enrichment, numbering: sequential-on-construct, sequence …

Variant	enrichment
[…] (CDR3 as printed); S7K derived by comparing it with the table's wild-type CDR3 AGPMKTSYDKVI	0
[…] (CDR3 as printed); V11A derived by comparing it with the table's wild-type CDR3 AGPMKTSYDKVI	1.13
[…] (CDR3 as printed); I12K derived by comparing it with the table's wild-type CDR3 AGPMKTSYDKVI	8.2
[…] (CDR3 as printed); I12T derived by comparing it with the table's wild-type CDR3 AGPMKTSYDKVI	0
[…] (CDR3 as printed); D9Q derived by comparing it with the table's wild-type CDR3 AGPMKTSYDKVI	0
[…] (CDR3 as printed); K10Y derived by comparing it with the table's wild-type CDR3 AGPMKTSYDKVI	4.15
[…] (CDR3 as printed); A1I derived by comparing it with the table's wild-type CDR3 AGPMKTSYDKVI	0.473
[…] (CDR3 as printed); D9C derived by comparing it with the table's wild-type CDR3 AGPMKTSYDKVI	0
[…] (CDR3 as printed); D9H derived by comparing it with the table's wild-type CDR3 AGPMKTSYDKVI	0.283
[…] (CDR3 as printed); M4E derived by comparing it with the table's wild-type CDR3 AGPMKTSYDKVI	27
[…] (CDR3 as printed); S7A derived by comparing it with the table's wild-type CDR3 AGPMKTSYDKVI	3.32
[…] (CDR3 as printed); K10R derived by comparing it with the table's wild-type CDR3 AGPMKTSYDKVI	0
[…] (CDR3 as printed); K10E derived by comparing it with the table's wild-type CDR3 AGPMKTSYDKVI	0
[…] (CDR3 as printed); P3K derived by comparing it with the table's wild-type CDR3 AGPMKTSYDKVI	0
[…] (CDR3 as printed); K5Q derived by comparing it with the table's wild-type CDR3 AGPMKTSYDKVI	7.86
[…] (CDR3 as printed); S7C derived by comparing it with the table's wild-type CDR3 AGPMKTSYDKVI	0
[…] (CDR3 as printed); S7P derived by comparing it with the table's wild-type CDR3 AGPMKTSYDKVI	0
[…] (CDR3 as printed); P3F derived by comparing it with the table's wild-type CDR3 AGPMKTSYDKVI	0
[…] (CDR3 as printed); G2F derived by comparing it with the table's wild-type CDR3 AGPMKTSYDKVI	0
[…] (CDR3 as printed); Y8R derived by comparing it with the table's wild-type CDR3 AGPMKTSYDKVI	0
[…] (CDR3 as printed); T6Y derived by comparing it with the table's wild-type CDR3 AGPMKTSYDKVI	0

Variant	enrichment
[…] (CDR3 as printed); V11Q derived by comparing it with the table's wild-type CDR3 AGPMKTSYDKVI	0
[…] (CDR3 as printed); V11N derived by comparing it with the table's wild-type CDR3 AGPMKTSYDKVI	0
[…] (CDR3 as printed); I12E derived by comparing it with the table's wild-type CDR3 AGPMKTSYDKVI	0.34
[…] (CDR3 as printed); P3D derived by comparing it with the table's wild-type CDR3 AGPMKTSYDKVI	0
[…] (CDR3 as printed); S7W derived by comparing it with the table's wild-type CDR3 AGPMKTSYDKVI	0
[…] (CDR3 as printed); D9E derived by comparing it with the table's wild-type CDR3 AGPMKTSYDKVI	0
[…] (CDR3 as printed); K5D derived by comparing it with the table's wild-type CDR3 AGPMKTSYDKVI	37.8
[…] (CDR3 as printed); T6L derived by comparing it with the table's wild-type CDR3 AGPMKTSYDKVI	0
[…] (CDR3 as printed); I12F derived by comparing it with the table's wild-type CDR3 AGPMKTSYDKVI	2.21
[…] (CDR3 as printed); I12G derived by comparing it with the table's wild-type CDR3 AGPMKTSYDKVI	0
[…] (CDR3 as printed); Y8I derived by comparing it with the table's wild-type CDR3 AGPMKTSYDKVI	0
[…] (CDR3 as printed); G2W derived by comparing it with the table's wild-type CDR3 AGPMKTSYDKVI	0
[…] (CDR3 as printed); I12N derived by comparing it with the table's wild-type CDR3 AGPMKTSYDKVI	0.107
[…] (CDR3 as printed); I12Q derived by comparing it with the table's wild-type CDR3 AGPMKTSYDKVI	0
[…] (CDR3 as printed); K10Q derived by comparing it with the table's wild-type CDR3 AGPMKTSYDKVI	1.98
[…] (CDR3 as printed); P3A derived by comparing it with the table's wild-type CDR3 AGPMKTSYDKVI	0
[…] (CDR3 as printed); T6P derived by comparing it with the table's wild-type CDR3 AGPMKTSYDKVI	9.39
[…] (CDR3 as printed); T6S derived by comparing it with the table's wild-type CDR3 AGPMKTSYDKVI	0
[…] (CDR3 as printed); K5P derived by comparing it with the table's wild-type CDR3 AGPMKTSYDKVI	9.21
[…] (CDR3 as printed); G2S derived by comparing it with the table's wild-type CDR3 AGPMKTSYDKVI	0
[…] (CDR3 as printed); V11M derived by comparing it with the table's wild-type CDR3 AGPMKTSYDKVI	0

Variant	enrichment
[…] (CDR3 as printed); M4Q derived by comparing it with the table's wild-type CDR3 AGPMKTSYDKVI	5.77
[…] (CDR3 as printed); T6Q derived by comparing it with the table's wild-type CDR3 AGPMKTSYDKVI	0
[…] (CDR3 as printed); M4Y derived by comparing it with the table's wild-type CDR3 AGPMKTSYDKVI	0.292
[…] (CDR3 as printed); P3C derived by comparing it with the table's wild-type CDR3 AGPMKTSYDKVI	0
[…] (CDR3 as printed); P3G derived by comparing it with the table's wild-type CDR3 AGPMKTSYDKVI	0
[…] (CDR3 as printed); G2A derived by comparing it with the table's wild-type CDR3 AGPMKTSYDKVI	0.952
[…] (CDR3 as printed); T6V derived by comparing it with the table's wild-type CDR3 AGPMKTSYDKVI	22.1
[…] (CDR3 as printed); K5C derived by comparing it with the table's wild-type CDR3 AGPMKTSYDKVI	0
[…] (CDR3 as printed); M4H derived by comparing it with the table's wild-type CDR3 AGPMKTSYDKVI	2.65
[…] (CDR3 as printed); I12V derived by comparing it with the table's wild-type CDR3 AGPMKTSYDKVI	11.6
[…] (CDR3 as printed); T6K derived by comparing it with the table's wild-type CDR3 AGPMKTSYDKVI	0
[…] (CDR3 as printed); K10T derived by comparing it with the table's wild-type CDR3 AGPMKTSYDKVI	0
[…] (CDR3 as printed); V11E derived by comparing it with the table's wild-type CDR3 AGPMKTSYDKVI	0
[…] (CDR3 as printed); A1G derived by comparing it with the table's wild-type CDR3 AGPMKTSYDKVI	0
[…] (CDR3 as printed); I12W derived by comparing it with the table's wild-type CDR3 AGPMKTSYDKVI	0
[…] (CDR3 as printed); K5I derived by comparing it with the table's wild-type CDR3 AGPMKTSYDKVI	3.95
[…] (CDR3 as printed); V11D derived by comparing it with the table's wild-type CDR3 AGPMKTSYDKVI	0.11
[…] (CDR3 as printed); T6W derived by comparing it with the table's wild-type CDR3 AGPMKTSYDKVI	0
[…] (CDR3 as printed); P3R derived by comparing it with the table's wild-type CDR3 AGPMKTSYDKVI	0
[…] (CDR3 as printed); G2E derived by comparing it with the table's wild-type CDR3 AGPMKTSYDKVI	0.387
[…] (CDR3 as printed); I12L derived by comparing it with the table's wild-type CDR3 AGPMKTSYDKVI	0.259

Variant	enrichment
[…] (CDR3 as printed); T6I derived by comparing it with the table's wild-type CDR3 AGPMKTSYDKVI	9.21
[…] (CDR3 as printed); T6R derived by comparing it with the table's wild-type CDR3 AGPMKTSYDKVI	0
[…] (CDR3 as printed); D9V derived by comparing it with the table's wild-type CDR3 AGPMKTSYDKVI	0
[…] (CDR3 as printed); M4G derived by comparing it with the table's wild-type CDR3 AGPMKTSYDKVI	0
[…] (CDR3 as printed); K10L derived by comparing it with the table's wild-type CDR3 AGPMKTSYDKVI	0
[…] (CDR3 as printed); A1M derived by comparing it with the table's wild-type CDR3 AGPMKTSYDKVI	0.103
[…] (CDR3 as printed); K10C derived by comparing it with the table's wild-type CDR3 AGPMKTSYDKVI	0.162
[…] (CDR3 as printed); G2P derived by comparing it with the table's wild-type CDR3 AGPMKTSYDKVI	0.351
[…] (CDR3 as printed); A1W derived by comparing it with the table's wild-type CDR3 AGPMKTSYDKVI	0
[…] (CDR3 as printed); I12A derived by comparing it with the table's wild-type CDR3 AGPMKTSYDKVI	2.32
[…] (CDR3 as printed); P3L derived by comparing it with the table's wild-type CDR3 AGPMKTSYDKVI	0
[…] (CDR3 as printed); K10G derived by comparing it with the table's wild-type CDR3 AGPMKTSYDKVI	0
[…] (CDR3 as printed); K5Y derived by comparing it with the table's wild-type CDR3 AGPMKTSYDKVI	0
[…] (CDR3 as printed); P3T derived by comparing it with the table's wild-type CDR3 AGPMKTSYDKVI	0
[…] (CDR3 as printed); I12M derived by comparing it with the table's wild-type CDR3 AGPMKTSYDKVI	0
[…] (CDR3 as printed); M4D derived by comparing it with the table's wild-type CDR3 AGPMKTSYDKVI	0
[…] (CDR3 as printed); D9A derived by comparing it with the table's wild-type CDR3 AGPMKTSYDKVI	0
[…] (CDR3 as printed); P3E derived by comparing it with the table's wild-type CDR3 AGPMKTSYDKVI	0.526
[…] (CDR3 as printed); A1E derived by comparing it with the table's wild-type CDR3 AGPMKTSYDKVI	0.186
[…] (CDR3 as printed); D9W derived by comparing it with the table's wild-type CDR3 AGPMKTSYDKVI	0
